Source: patent US20180250415A1 (Scripps Research, published 2018)

T1: CD138 (human, UniProt P18827 23-310)
T1 construct: whole, on cells; also called CD138 on H929 and U266 cells
T1 sequence (looked up): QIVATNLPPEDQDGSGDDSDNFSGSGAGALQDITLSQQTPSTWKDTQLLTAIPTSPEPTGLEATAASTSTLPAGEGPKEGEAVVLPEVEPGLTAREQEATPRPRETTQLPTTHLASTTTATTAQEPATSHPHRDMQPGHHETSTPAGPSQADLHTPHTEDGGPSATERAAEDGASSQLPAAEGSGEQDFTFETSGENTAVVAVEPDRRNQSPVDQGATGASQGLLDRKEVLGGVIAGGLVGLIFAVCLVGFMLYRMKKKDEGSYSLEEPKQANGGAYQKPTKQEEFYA

T2: CD79b (UniProt P40259 29-229, limits assumed)
T2 construct: whole, on cells; also called CD79b on Ramos cells
T2 sequence (looked up): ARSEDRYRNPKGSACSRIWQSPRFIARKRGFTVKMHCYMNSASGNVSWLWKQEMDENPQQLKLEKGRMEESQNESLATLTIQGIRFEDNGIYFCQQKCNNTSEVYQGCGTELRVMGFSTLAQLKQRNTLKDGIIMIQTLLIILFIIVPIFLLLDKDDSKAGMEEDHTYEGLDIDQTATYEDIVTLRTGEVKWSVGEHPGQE

B1: CD138-h38C2-DVD1 immunoglobulin (antibody, human IgG1, kappa)
light: DIQMTQSTSSLSASLGDRVTISCSASQGINNYLNWYQQKPDGTVELLIYYTSTLQSGVPSRFSGSGSGTDYSLTISNLEPEDIGTYYCQQYSKLPRTFGGGTKLEIKASTKGPELQMTQSPSSLSASVGDRVTITCRSSQSLLHTYGSPYLNWYLQKPGQSPKLLIYKVSNRFSGVPSRFSGSGSGTDFTLTISSLQPEDFAVYFCSQGTHLPYTFGGGTKVEIKRTVAAPSVFIFPPSDEQLKSGTASVVCLLNNFYPREAKVQWKVDNALQSGNSQESVTEQDSKDSTYSLSSTLTLSKADYEKHKVYACEVTHQGLSSPVTKSFNRGEC
heavy: not shown
notes: also called CD138 DVD; anti-CD138 DVD1
B2: h38C2 IgG1 (antibody, V domains shown)
VH: EVQLVESGGGLVQPGGSLRLSCAASGFTFSNYWMSWVRQSPEKGLEWVSEIRLRSDNYATHYAESVKGRFTISRDNSKNTLYLQMNSLRAEDTGIYYCKTYFYSFSYWGQGTLVTVSS
VL: ELQMTQSPSSLSASVGDRVTITCRSSQSLLHTYGSPYLNWYLQKPGQSPKLLIYKVSNRFSGVPSRFSGSGSGTDFTLTISSLQPEDFAVYFCSQGTHLPYTFGGGTKVEIK
notes: also called parent h38C2 IgG1; unconjugated humanized 38C2 antibody

Experiments:
CD138 = target: T1, CD138; experiment: flow cytometry on H929 and U266 (CD138+) cells, detected with 647-conjugated F(ab')2 donkey anti-human Fc [CONT.]
Method: (§1) The binding activities of these DVDs are also tested against target expressing cells. […] The cells are washed with 200 μL flow cytometry buffer (PBS, 2% (w/v) FBS, pH 7.4), are incubated with DVD1 or DVD2 for 30 min on ice, are washed with 200 μL flow cytometry buffer, and are stained with 647 conjugated polyclonal (Fab′)₂ donkey anti-human Fc (Jackson ImmunoResearch Laboratories) for 20 min on ice. After washing twice with 200 μL ice-cold flow cytometry buffer, the cells are analyzed using a Canto II Flow Cytometer (Becton-Dickinson). Data were analyzed using FlowJo software (Tree Star).

HER2 = target: T3, HER2 (human, UniProt P04626 23-1255); experiment: flow cytometry on SK-BR-3 (SKBR3, HER2+) cells, detected with 647-conjugated F(ab')2 donkey anti-human Fc
T3 construct: whole, on cells; also called ERBB2; HER2 on SK-BR-3 (SKBR3) cells
Method: as §1

CD79b = target: T2, CD79b; experiment: flow cytometry on Ramos (CD79b+) cells, detected with 647-conjugated F(ab')2 donkey anti-human Fc [CONT.]
Method: as §1

Binder	binding result (CD138)	binding result (HER2)	binding result (CD79b)
B1	binds	–	–
B2	no binding	no binding	no binding
